Measured values published in patent US20250179176A1, “ANTI-TIGIT ANTIBODIES AND USES OF THE SAME” (ARCUS BIOSCIENCES, INC., priority 2022, published 2025).

Experiments:
[1] = in vivo
[2] = system: Jurkat cell line stably overexpressing human TIGIT; experiment: CDC assay with human complement; format: cell-based; conditions: increasing concentrations up to 33 nM
Experimental: Briefly, 50,000 Jurkat-TIGIT cells in RPMI 1640 medium (Invitrogen) containing 10% fetal bovine serum (FBS) were seeded into a 96-well round bottom plates (Nunc). Test antibodies were added starting at a top concentration of 50 μg/ml followed by a three-fold dilution series and allowed to incubate with cells for 1 hour at 37° C. in a 5% CO2 incubator. After this 1-hour incubation, human complement was added and allowed to incubate for an additional 3 hours at 37° C. in a 5% CO2 incubator. Following the completion of this 3-hour incubation, […] of propidium iodide (ThermoFisher) was added and samples were analyzed by flow cytometry (BD FACSCalibur) to determine the percentages of propidium iodide positivity as a readout for cell death.

In the case of “zimberelimab: antagonistic PD-1 antibody, immune checkpoint inhibitor”, the “Any SAEs Leading to DC” value [1] is reported as 8 (21) n (%), the “Any SAEs Leading to Study Drug Discontinuation” value [1] is reported as 9 (18.0) n (%) and the “Any SAEs, events” value [1] is reported as 30 n. The “Any SAEs, subjects” value [1] was 18 (47.4) n (%), the “Any TEAEs of Grade 3 or Higher, events” value [1] was 41 n and the “Any TEAEs of Grade 3 or Higher, subjects” value [1] was 20 (52.6) n (%). The “Any TEAEs that are immune-related” value [1] was 24 (48.0) n (%), the “Any TEAEs, events” value [1] was 271 n and the “Any TEAEs, subjects” value [1] was 36 (94.7) n (%). The “Grade ≥3 TEAE Acute respiratory failure, events” value [1] was 0 n, the “Grade ≥3 TEAE Acute respiratory failure, subjects” value [1] was 0 n (%) and the “Grade ≥3 TEAE Anaemia, events” value [1] was 2 n. The “Grade ≥3 TEAE Anaemia, subjects” value [1] was 2 (5.3) n (%), the “Grade ≥3 TEAE Asthenia, events” value [1] was 2 n and the “Grade ≥3 TEAE Asthenia, subjects” value [1] was 2 (5.3) n (%). For the same molecule, the “Grade ≥3 TEAE Chronic obstructive pulmonary disease, events” value [1] was 0 n, the “Grade ≥3 TEAE Chronic obstructive pulmonary disease, subjects” value [1] was 0 n (%) and the “Grade ≥3 TEAE Dyspnoea, events” value [1] was 3 n. The “Grade ≥3 TEAE Dyspnoea, subjects” value [1] was 3 (7.9) n (%), the “Grade ≥3 TEAE Fatigue, events” value [1] was 0 n and the “Grade ≥3 TEAE Fatigue, subjects” value [1] was 0 n (%). For the same molecule, the “Grade ≥3 TEAE Hyperglycaemia, events” value [1] was 2 n, the “Grade ≥3 TEAE Hyperglycaemia, subjects” value [1] was 2 (5.3) n (%) and the “Grade ≥3 TEAE Hyperkalaemia, events” value [1] was 0 n. The “Grade ≥3 TEAE Hyperkalaemia, subjects” value [1] was 0 n (%), the “Grade ≥3 TEAE Hypertension, events” value [1] was 0 n and the “Grade ≥3 TEAE Hypertension, subjects” value [1] was 0 n (%). For the same molecule, the “Grade ≥3 TEAE Hypokalaemia, events” value [1] was 3 n, the “Grade ≥3 TEAE Hypokalaemia, subjects” value [1] was 3 (7.9) n (%) and the “Grade ≥3 TEAE Hypoxia, events” value [1] was 1 n. For the same molecule, the “Grade ≥3 TEAE Hypoxia, subjects” value [1] was 1 (2.6) n (%), the “Grade ≥3 TEAE Myocardial infarction, events” value [1] was 1 n and the “Grade ≥3 TEAE Myocardial infarction, subjects” value [1] was 1 (2.6) n (%). The “Grade ≥3 TEAE Pericardial effusion, events” value [1] was 1 n, the “Grade ≥3 TEAE Pericardial effusion, subjects” value [1] was 1 (2.6) n (%) and the “Grade ≥3 TEAE Pleural effusion, events” value [1] was 2 n. The “Grade ≥3 TEAE Pleural effusion, subjects” value [1] was 2 (5.3) n (%), the “Grade ≥3 TEAE Pneumonia, events” value [1] was 2 n and the “Grade ≥3 TEAE Pneumonia, subjects” value [1] was 2 (5.3) n (%). For the same molecule, the “Grade ≥3 TEAE Pneumonitis, events” value [1] was 2 n, the “Grade ≥3 TEAE Pneumonitis, subjects” value [1] was 2 (5.3) n (%) and the “Grade ≥3 TEAE Pulmonary embolism, events” value [1] was 3 n. For the same molecule, the “Grade ≥3 TEAE Pulmonary embolism, subjects” value [1] was 3 (7.9) n (%), the “Grade ≥3 TEAE Respiratory failure, events” value [1] was 0 n and the “Grade ≥3 TEAE Respiratory failure, subjects” value [1] was 0 n (%). For the same molecule, the “Grade ≥3 TEAE Sepsis, events” value [1] was 0 n, the “Grade ≥3 TEAE Sepsis, subjects” value [1] was 0 n (%) and the “Grade ≥3 TEAE Septic shock, events” value [1] was 1 n. For the same molecule, the “Grade ≥3 TEAE Septic shock, subjects” value [1] was 1 (2.6) n (%), the “Grade ≥3 TEAE Spinal compression fracture, events” value [1] was 2 n and the “Grade ≥3 TEAE Spinal compression fracture, subjects” value [1] was 2 (5.3) n (%). The “Immune-related TEAE Acute respiratory failure” value [1] was 0 n (%), the “Immune-related TEAE Bronchospasm” value [1] was 0 n (%) and the “Immune-related TEAE Bulbar palsy” value [1] was 0 n (%). The “Immune-related TEAE Colitis” value [1] was 0 n (%), the “Immune-related TEAE Contrast media reaction” value [1] was 1 (2.0) n (%) and the “Immune-related TEAE Diabetes mellitus” value [1] was 1 (2.0) n (%). The “Immune-related TEAE Diabetic ketoacidosis” value [1] was 1 (2.0) n (%), the “Immune-related TEAE Drug eruption” value [1] was 1 (2.0) n (%) and the “Immune-related TEAE Erythema” value [1] was 1 (2.0) n (%). The “Immune-related TEAE Eyelid oedema” value [1] was 0 n (%), the “Immune-related TEAE Flushing” value [1] was 1 (2.0) n (%) and the “Immune-related TEAE Generalised oedema” value [1] was 0 n (%). For the same molecule, the “Immune-related TEAE Hyperthyroidism” value [1] was 1 (2.0) n (%), the “Immune-related TEAE Hypothyroidism” value [1] was 4 (8.0) n (%) and the “Immune-related TEAE Idiopathic urticaria” value [1] was 0 n (%). For the same molecule, the “Immune-related TEAE Immune-mediated enterocolitis” value [1] was 1 (2.0) n (%), the “Immune-related TEAE Infusion related reaction” value [1] was 0 n (%) and the “Immune-related TEAE Lichen planus” value [1] was 0 n (%). The “Immune-related TEAE Mouth ulceration” value [1] was 0 n (%), the “Immune-related TEAE Myocarditis” value [1] was 0 n (%) and the “Immune-related TEAE Myositis” value [1] was 1 (2.0) n (%). For the same molecule, the “Immune-related TEAE Pancreatitis” value [1] was 0 n (%), the “Immune-related TEAE Pneumonitis” value [1] was 7 (14.0) n (%) and the “Immune-related TEAE Pneumonitis Grade ≥3” value [1] was 3 (6) n (%). The “Immune-related TEAE Pruritus” value [1] was 8 (16.0) n (%), the “Immune-related TEAE Rash” value [1] was 6 (12.0) n (%) and the “Immune-related TEAE Rash maculo-papular” value [1] was 1 (2.0) n (%). The “Immune-related TEAE Rash pustular” value [1] was 0) n (%), the “Immune-related TEAE Respiratory failure” value [1] was 1 (2.0) n (%) and the “Immune-related TEAE Rheumatoid arthritis” value [1] was 0 n (%). The “Immune-related TEAE Rhinitis allergic” value [1] was 0 n (%), the “Immune-related TEAE Seasonal allergy” value [1] was 0 n (%) and the “Immune-related TEAE Stomatitis” value [1] was 0 n (%). For the same molecule, the “Immune-related TEAE Thyroiditis” value [1] was 0 n (%), the “Immune-related TEAE Tracheal obstruction” value [1] was 0 n (%) and the “Immune-related TEAE Type I diabetes mellitus” value [1] was 1 (2.0) n (%). The “Immune-related TEAE Urticaria” value [1] was 0 n (%), the “Immune-related TEAE Wheezing” value [1] was 0 n (%) and the Infusion-related reactions [1] was 2 (4) n (%). For the same molecule, the Rash [1] was 6 (12) n (%), the “SAE Anaemia, events” value [1] was 0 n and the “SAE Anaemia, subjects” value [1] was 0 n (%). For the same molecule, the “SAE Asthenia, events” value [1] was 2 n, the “SAE Asthenia, subjects” value [1] was 2 (5.3) n (%) and the “SAE Chronic obstructive pulmonary disease, events” value [1] was 0 n. For the same molecule, the “SAE Chronic obstructive pulmonary disease, subjects” value [1] was 0 n (%), the “SAE Myocardial infarction, events” value [1] was 1 n and the “SAE Myocardial infarction, subjects” value [1] was 1 (2.6) n (%). The “SAE Pleural effusion, events” value [1] was 3 n, the “SAE Pleural effusion, subjects” value [1] was 2 (5.3) n (%) and the “SAE Pneumonia, events” value [1] was 2 n. The “SAE Pneumonia, subjects” value [1] was 2 (5.3) n (%), the “SAE Pneumonitis, events” value [1] was 1 n and the “SAE Pneumonitis, subjects” value [1] was 1 (2.6) n (%). The “SAE Pulmonary embolism, events” value [1] was 3 n, the “SAE Pulmonary embolism, subjects” value [1] was 3 (7.9) n (%) and the “SAE Septic shock, events” value [1] was 1 n. For the same molecule, the “SAE Septic shock, subjects” value [1] was 1 (2.6) n (%), the “SAE Spinal compression fracture, events” value [1] was 2 n and the “SAE Spinal compression fracture, subjects” value [1] was 2 (5.3) n (%). For the same molecule, the “TEAE Constipation, events” value [1] was 6 n, the “TEAE Constipation, subjects” value [1] was 4 (10.5) n (%) and the “TEAE Decreased appetite, events” value [1] was 6 n. The “TEAE Decreased appetite, subjects” value [1] was 6 (15.8) n (%), the “TEAE Diarrhoea, events” value [1] was 7 n and the “TEAE Diarrhoea, subjects” value [1] was 6 (15.8) n (%). For the same molecule, the “TEAE Dyspnoea, events” value [1] was 9 n, the “TEAE Dyspnoea, subjects” value [1] was 7 (18.4) n (%) and the “TEAE Fatiguc, events” value [1] was 11 n. For the same molecule, the “TEAE Fatiguc, subjects” value [1] was 11 (28.9) n (%), the “TEAE Nausea, events” value [1] was 7 n and the “TEAE Nausea, subjects” value [1] was 7 (18.4) n (%). The “TEAE Pneumonia, events” value [1] was 2 n, the “TEAE Pneumonia, subjects” value [1] was 2 (5.3) n (%) and the “TEAE Pneumonitis, events” value [1] was 7 n. The “TEAE Pneumonitis, subjects” value [1] was 6 (15.8) n (%), the “TEAE Pruritus, events” value [1] was 6 n and the “TEAE Pruritus, subjects” value [1] was 6 (15.8) n (%). The “TEAE Pyrexia, events” value [1] was 4 n, the “TEAE Pyrexia, subjects” value [1] was 4 (10.5) n (%) and the “TEAE Rash, events” value [1] was 8 n. For the same molecule, the “TEAE Rash, subjects” value [1] was 3 (7.9) n (%), the “TEAE Vomiting, events” value [1] was 3 n and the “TEAE Vomiting, subjects” value [1] was 3 (7.9) n (%). The “TEAEs leading to study drug mod. int.” value [1] was 12 (24.0) n (%), the “TEAEs leading to study drug mod. int., related to study treatment” value [1] was 7 (14.0) n (%) and the “TEAEs leading to zim discon., related to zim” value [1] was 9 (18.0) n (%). For the same molecule, the “TEAEs leading to zim mod./int., related to zim” value [1] was 7 (14.0) n (%), the “grade 3 treatment-emergent adverse events” value [1] was 58% and the tolerability [1] was “well tolerated”.

B1: domvanalimab: anti-TIGIT antibody with engineered IgG1 Fc, reduced FcγR binding; heavy chain SEQ ID NO: 12, light chain SEQ ID NO: 13 (antibody)
heavy: EVQLVESGGGLVQPGGSLRLSCAASGFTFSNFGMHWVRQAPGKGLEWVAFISSGSSSIYYADTVKGRFTISRDNAKNSLYLQMNSLRAEDTAVYYCARMRLDYYAMDYWGQGTMVTVSSASTKGPSVFPLAPSSKSTSGGTAALGCLVKDYFPEPVTVSWNSGALTSGVHTFPAVLQSSGLYSLSSVVTVPSSSLGTQTYICNVNHKPSNTKVDKKVEPKSCDKTHTCPPCPAPEAAGGPSVFLFPPKPKDTLMISRTPEVTCWVDVSHEDPEVKFNWYVDGVEVHNAKTKPREEQYNSTYRWSVLTVLHQDWLNGKEYKCKVSNKALPAPIEKTISKAKGQPREPQVYTLPPSRDELTKNQVSLTCLVKGFYPSDIAVEWESNGQPENNYKTTPPVLDSDGSFFLYSKLTVDKSRWQQGNVFSCSVMHEALHNHYTQKSLSLSPGK
light: DIQMTQSPSSLSASVGDRVTITCRASKSISKYLAWYQQKPGKAPKLLIYSGSTLQSGVPSRFSGSGSGTDFTLTISSLQPEDFATYYCQQHNEYPWTFGGGTKVEIKRTVAAPSVFIFPPSDEQLKSGTASWCLLNNFYPREAKVQWKVDNALQSGNSQESVTEQDSKDSTYSLSSTLTLSKADYEKHKVYACEVTHQGLSSPVTKSFNRGEC
In the case of B1, the complement-dependent cytotoxicity [2] is reported as “No cytotoxicity”.
